One molecule from patent US20240327510A1, “DRUG FOR PREVENTING, ALLEVIATING OR TREATING MUCOSAL ADHESION AND USE THEREOF” (SHANGHAI SYNVIDA BIOTECHNOLOGY CO. LTD., priority 2021, published 2024) can be followed below.

The subject of assay [1] is subcutaneous mucosal fibroblasts. As to the kind of experiment: TGFβ activated mucosal fibroblasts treated with antibody: hydroxyproline in supernatant and QPCR of Col7a1, ACTA2. The class given is cell-based, humanized Pear1 mice. The note with it: 1 μg/mL antibody, 10 ng/mL TGFβ, 48 hours; versus control group. On the procedure:
After the treatment of starvation in cultured mucosal or subcutaneous derived fibroblasts for 12 hours, 1 μg/mL anti-human Pear1 monoclonal antibody (including LF2 antibody or hLF105 antibody) was added separately to treat the cells. After 30 minutes, 10 ng/mL TGFβ was added to treat the cells for 48 hours, then the cell supernatant was collected. The content of hydroxyproline was detected using the hydroxyproline detection kit of Nanjing Jiancheng Biology Co., Ltd. according to the instructions.
Mucosal fibroblasts in Method 5 were collected. Total mRNA was extracted by Trizol method (Invitrogen, Carlsbad, CA) according to standard protocols. Complementary DNA was synthesized using reverse transcriptase (Takara). ABI7000 Real-time PCR instrument (Life Technologies) was used to detect gene expression and the PCR primer sequences are shown in Table 5. The 18sRNA gene was used as an internal reference.
To further investigate the role of targeting Pear1 in inhibiting mucosal fibroblast activation, subcutaneous mucosal fibroblasts were isolated from humanized Pear1 mice and cultured in vitro. TGFβ activated fibroblasts were treated with anti-human Pear1 monoclonal antibodies (including LF2 or hLF105) for 48 hours, and the supernatants were collected to detect the content of hydroxyproline. The cells were collected for QPCR to detect the expression levels of extracellular matrix proteins such as collagen 7a1 (Col 7a1) and smooth muscle actin a2 (ACTA2) to characterize fibroblast activation and collagen synthesis.

The test system of assay [2] is humanized Pear1 mice. Put plainly: Subcutaneous mucosal adhesion model, HE and Masson staining at wounded site. The class given is in vivo. The settings on record: 5 micrograms at the wounded site every 7 days; 14th day; versus control group. An excerpt: Mice were anesthetized by intraperitoneal injection of pentobarbital sodium. The hair is depilated and sterilized, and the skin is excised. A thin layer of bonding agent was applied to one side of the silicone plate to fix the wound concentrically with a clamping board. Each clamping board was sutured at regular intervals with eight stitches to secure it to the intact tissue around the wound, preventing contraction of the wound edges. Sterile dressings were cut into circular shapes and attached to the silicone board for protecting the wound, preventing the animals from scratching or chewing. The anti-human Pear1 monoclonal antibody was […].
Mice were anesthetized using isoflurane, maintaining a flow of 2% isoflurane. The sterile dressings on the silicone board were peeled off (or not peeled off). Pictures were taken at the wounded sites next to the fixed position and scale bar. If necessary, sterile dressings can be reapplied. Image J was used to process the photos. The wounded area can be calculated according to the circled area by the scale.
[…] were fixed in 4% paraformaldehyde for 48 hours, after paraffin embedding, a semi-automatic rotary slicing machine (Leica; rm2235 and cm1950) was used for slicing, dewaxing is carried out at room temperature, gradient ethanol is used for rehydration, HE and Masson staining were then performed.
Subsequently, in order to detect the role of targeting Pear1 in inhibiting adhesion formation in vivo, the inventors constructed an adhesion model in humanized Pear1 mice, and at the same time instilled anti-human Pear1 monoclonal antibodies (including LF2 or hLF105) each at a dose of 5 micrograms at the wounded site, with once administration every 7 days. On the 14th day, the subcutaneous mucosal tissue at the wounded site was removed, stained with HE and Masson, and photographed under a microscope. The thickness of the subcutaneous mucosa and skin and the area of collagen were counted by Image J software for indicating the formation of adhesions.

For assay [3], the system named is humanized Pear1 mice. As to the kind of experiment: Peritoneal adhesion model, BhatiaDS score. The class given is in vivo. Set-up: key to BhatiaDS score: grade 0: no adhesion; grade I: adhesive area of the area treated in the caecums of vermiform/total area of the treated area<50%, easy for blunt separation; grade II: above-mentioned area ratio≥50%, easy for blunt dissection; Grade III: Regardless of the size of the adhesive area, as long as the adhesion is difficult to separate, blunt separation can still be performed, but the intestinal wall is obviously damaged after separation; Grade IV: Regardless of the size of the adhesive area, as long as the adhesion is firm and can no longer be bluntly separated, required sharp separation. An excerpt: The model was made in humanized mice within 3 cm from the caecums of vermiform in peritoneal cavity, following the methods in the literature (Zhiliang Zhang, et al., Characteristics of genesis and development of peritoneal adhesion by different causes: experiment with rats, Chinese Journal of Medicine, 2005). The mice were divided into 3 groups. groups, with 20 mice in each group: A, control group with normal saline; B, prophylactic intraperitoneal injection of anti-human Pear1 monoclonal antibody (including LF2 or hLF105 antibody) 0.5 mg/kg, once a week; C, prophylactic intraperitoneal injection of anti-human Pear1 monoclonal antibody 1 mg/kg, once a week. After the mice were euthanized at 2 time points of 2 weeks and 4 weeks, an inverted “U”-shaped incision was selected to enter the abdomen, avoiding the original surgical incision. […] And the degree of adhesion in the peritoneal adhesion model was evaluated. […]
According to the scoring standard of BhatiaDS, grade 0: no adhesion; grade I: adhesive area of the area treated in the caecums of vermiform/total area of the treated area<50%, easy for blunt separation; grade II: above-mentioned area ratio≥50%, easy for blunt dissection; Grade III: Regardless of the size of the adhesive area, as long as the adhesion is difficult to separate, blunt separation can still be performed, but the intestinal wall is obviously damaged after separation; Grade IV: Regardless of the size of the adhesive area, as long as the adhesion is firm and can no longer be bluntly separated, required sharp separation. Each mouse was scored by 3 people respectively, and the average value was taken as the score of adhesion in this sample.

For assay [4], the system named is humanized Pear1 mice. As to the kind of experiment: Peritoneal adhesion model, determination of hydroxyproline in tissues. The assay is classed as in vivo. The note with it: versus control group. An excerpt:
(§1) The model was made in humanized mice within 3 cm from the caecums of vermiform in peritoneal cavity, following the methods in the literature (Zhiliang Zhang, et al., Characteristics of genesis and development of peritoneal adhesion by different causes: experiment with rats, Chinese Journal of Medicine, 2005). The mice were divided into 3 groups. groups, with 20 mice in each group: A, control group with normal saline; B, prophylactic intraperitoneal injection of anti-human Pear1 monoclonal antibody (including LF2 or hLF105 antibody) 0.5 mg/kg, once a week; C, prophylactic intraperitoneal injection of anti-human Pear1 monoclonal antibody 1 mg/kg, once a week. After the mice were euthanized at 2 time points of 2 weeks and 4 weeks, an inverted “U”-shaped incision was selected to enter the abdomen, avoiding the original surgical incision. […] And the degree of adhesion in the peritoneal adhesion model was evaluated.
(§2) For fibroblast-specific Pear1 knockout mice, a peritoneal adhesion model was used to form a sham operation on the mice. The model preparation and animal grouping were as described above.
The formation of tissue adhesion depends on the synthesis of collagen and hydroxyproline is the precursor of collagen synthesis. […]

For assay [5], the system named is humanized Pear1 mice. Put plainly: Peritoneal adhesion model, indicators related to adhesion (immunohistochemistry or RT-PCR). The class given is in vivo. The note with it: versus control group.
Source text: as §1, §2
Immunohistochemistry or RT-PCR was used to measure some indicators related to adhesion formation to reflect the severity of adhesion, such as: fibrinogen (FIB), α-smooth actin (α-SMA), MMPs/TIMPs, transforming growth factor (TGF-β1), vascular endothelial growth factor (VEGF).

B1: hLF105: humanized anti-human Pear1 antibody; VH SEQ ID NO: 8, VL SEQ ID NO: 22 (antibody, V domains shown)
VH: QVQLVQSGAEVKKPGASVKVSCKASGYTFTGYPMNWVRQAPGKRLEWMGVINPYNGGTSYNQKFKGRATLTVDTSASTAYMELSSLRSEDTAVYYCARGGVRPFAYWGQGTLVTVSS
VL: DIQMTQSPSSLSASVGDRVTITCKASEDIYNRLAWYQQKPGKAPKLLISGATSLETGVPSRFSGSGSGNDFTLTISSLQPEDFATYYCQQYWSTPTFGQGTKLEIK
In the case of B1, in assay [1], the “ability to synthesize extracellular matrix” value is “inhibited” and the activation of fibroblasts result is given as “inhibited”. Moreover, in the assay on humanized Pear1 mice [2], the “collagen deposition in the subcutaneous mucosa at wounded sites (Masson staining)” value is reported as “less collagen deposition”, the “dermal thickness at wounded sites (HE staining)” value is listed as “smaller dermal thickness” and the “fibroblasts at wounded sites (HE staining)” value was “fewer fibroblasts”. Besides, the BhatiaDS score result in the assay on humanized Pear1 mice [3] (0.5 mg/kg intraperitoneal once a week, 2 weeks (n = 8)) is given as “II (grade II: above-mentioned area ratio≥50%, easy for blunt dissection)”. For the same molecule, in the assay with humanized Pear1 mice [3] (0.5 mg/kg intraperitoneal once a week, 4 weeks (n = 8)), the BhatiaDS score result is “I (grade I: adhesive area of the area treated in the caecums of vermiform/total area of the treated area<50%, easy for blunt separation)”. In addition, the BhatiaDS score result in the assay with humanized Pear1 mice [3] (1.0 mg/kg intraperitoneal once a week, 2 weeks (n = 8)) is “III”. For the same molecule, the BhatiaDS score result with humanized Pear1 mice [3] (1.0 mg/kg intraperitoneal once a week, 4 weeks (n = 8)) is given as “II (grade II: above-mentioned area ratio≥50%, easy for blunt dissection)”. The “BhatiaDS score compared with the control group” value with humanized Pear1 mice [3] (versus control group, especially in the high-dose group (1.0 mg/kg)) is reported as “significantly lower”. The “hydroxyproline content in tissues” value with humanized Pear1 mice [4] is “significantly lower”. Besides, in the assay on humanized Pear1 mice [5], the “indicators related to adhesion (FIB, α-SMA, MMPs/TIMPs, TGF-β1, VEGF)” value was “significantly lower”.
